Here are results for one molecule from publication PMC4873337.

The target in this data set is WT p45 Tcf1 (UniProt Q00417 1-419). Briefly: EMSA.
Chain of WT p45 Tcf1 (Q00417 whole entry): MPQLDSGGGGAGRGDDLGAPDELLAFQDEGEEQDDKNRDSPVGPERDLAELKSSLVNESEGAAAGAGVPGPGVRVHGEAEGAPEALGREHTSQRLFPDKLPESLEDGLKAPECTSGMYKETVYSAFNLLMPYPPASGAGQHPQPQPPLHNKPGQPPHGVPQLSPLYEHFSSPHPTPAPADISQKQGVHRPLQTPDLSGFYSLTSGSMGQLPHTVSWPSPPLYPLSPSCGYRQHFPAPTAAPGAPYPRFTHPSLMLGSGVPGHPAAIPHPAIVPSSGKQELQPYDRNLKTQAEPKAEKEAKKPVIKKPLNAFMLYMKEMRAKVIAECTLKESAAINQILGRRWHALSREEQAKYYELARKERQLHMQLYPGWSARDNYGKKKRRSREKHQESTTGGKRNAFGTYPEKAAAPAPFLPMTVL

B1: TOP probe (dsDNA)
DNA 1: GATCTAGGGCACCCTTTGAAGCTCT
DNA 2: AGAGCTTCAAAGGGTGCCCTAGATC
In the case of B1, the binding result is “binds”.
